Laboratory results reported in US6794168B1, “Process for oxidising aromatic compounds” (Isis Innovation Limited, priority 1999, dated 2004).

Assays:
P450cam = test: Oxidation of further halo aromatic substrates by P450cam enzymes; type: biochemical, Pseudomonas putida; settings: substrate of P450cam enzymes
Description: (§1) 50 mM Tris-HCl buffer pH 7.4 is added to make up the volume.
(§2) Temperature controlled at 30° C., optional.
(§3) The NADH turnover rate could be determined by monitoring the absorbance at 340 nm with time.
(§4) All mutants have C334A. Coupling efficiency is the percentage of NADH consumed which was utilised for product formation, i.e. a percentage of the theoretical maximum efficiency. The product formation rates are given in (nmol product) (nmol P450cam)^−1(min)^−1. The relative amount of product formed in each case is shown. 1,3- and 1,4-dichlorobenzene, 1,2,3- and 1,3,5-trichlorobenzene, 1,2,4,5- and 1,2,3,5-tetrachlorobenzene, and […] and 2,2′,4,5,5′-pentachlorobiphenyl were also found to be oxidised.

[1] = Oxidation of halo aromatic compounds by P450cam mutants in vitro, trichlorophenol products; type: biochemical; settings: for Product formation rate: (nmol product)(nmol P450cam)^−1(min)^−1; for Product formation rate / Coupling Efficiency (%): trichlorophenol products; for Coupling Efficiency (%): percentage of NADH consumed utilised for product formation; for 2,3,6-Trichlorophenol (relative amount of product formed) / 3,4,6-Trichlorophenol (relative amount of product formed): substrate not named, all mutants have C334A
Description: as §1, §2, §3, §4

[2] = Oxidation of halo aromatic compounds by P450cam mutants in vitro, dichlorophenol products; type: biochemical; settings: for Product formation rate: (nmol product)(nmol P450cam)^−1(min)^−1; for Product formation rate / Coupling Efficiency (%): dichlorophenol products; for Coupling Efficiency (%): percentage of NADH consumed utilised for product formation; for 2,3-Dichlorophenol (relative amount of product formed) / 3,4-Dichlorophenol (relative amount of product formed): substrate not named, all mutants have C334A
Description: as §1, §2, §3, §4

| Molecule | found to be oxidised (P450cam) | Product formation rate [1] [min⁻¹] | Product formation rate [2] [min⁻¹] | further results |
| --- | --- | --- | --- | --- |
| Clc1c(Cl)c(Cl)c(-c2ccccc2)c(Cl)c1Cl [2,3,4,5,6-pentachlorobiphenyl] | oxidised | – | – | – |
| Clc1cc(Cl)c(Cl)c(Cl)c1 [1,2,3,5-tetrachlorobenzene] | oxidised | – | – | – |
| Clc1ccc(Cl)c(-c2cc(Cl)c(Cl)cc2Cl)c1 [2,2′,4,5,5′-pentachlorobiphenyl] | oxidised | – | – | – |
| Clc1cccc(Cl)c1Cl [1,2,3-trichlorobenzene] | oxidised | – | – | – |
| Clc1cccc(Cl)c1 [1,3-dichlorobenzene] | oxidised | – | – | – |
| Clc1cc(Cl)cc(Cl)c1 [1,3,5-trichlorobenzene] | oxidised | – | – | – |
| Clc1cc(Cl)c(Cl)cc1Cl [1,2,4,5-tetrachlorobenzene] | oxidised | – | – | – |
| Clc1ccc(Cl)cc1 [1,4-dichlorobenzene] | oxidised | – | – | – |
| F87A-Y96F: P450cam mutant (with C334A) (protein, UniProt P00183 2-415, looked up, variant F87A Y96F C334A) Camphor 5-monooxygenase: TTETIQSNANLAPLPPHVPEHLVFDFDMYNPSNLSAGVQEAWAVLQESNVPDLVWTRCNGGHWIATRGQLIREAYEDYRHFSSECPAIPREAGEAFDFIPTSMDPPEQRQFRALANQVVGMPVVDKLENRIQELACSLIESLRPQGQCNFTEDYAEPFPIRIFMLLAGLPEEDIPHLKYLTDQMTRPDGSMTFAEAKEALYDYLIPIIEQRRQKPGTDAISIVANGQVNGRPITSDEAKRMCGLLLVGGLDTVVNFLSFSMEFLAKSPEHRQELIERPERIPAACEELLRRFSLVADGRILTSDYEFHGVQLKKGDQILLPQMLSGLDERENAAPMHVDFSRQKVSHTTFGHGSHLCLGQHLARREIIVTLKEWLTRIPDFSIAPGAQIQHKSGIVSGVQALPLVWDPATTKAV | – | 3 | – | – |
| Y96A-V247L: P450cam mutant (with C334A) (protein, UniProt P00183 2-415, looked up, variant Y96A V247L C334A) Camphor 5-monooxygenase: TTETIQSNANLAPLPPHVPEHLVFDFDMYNPSNLSAGVQEAWAVLQESNVPDLVWTRCNGGHWIATRGQLIREAYEDYRHFSSECPFIPREAGEAADFIPTSMDPPEQRQFRALANQVVGMPVVDKLENRIQELACSLIESLRPQGQCNFTEDYAEPFPIRIFMLLAGLPEEDIPHLKYLTDQMTRPDGSMTFAEAKEALYDYLIPIIEQRRQKPGTDAISIVANGQVNGRPITSDEAKRMCGLLLLGGLDTVVNFLSFSMEFLAKSPEHRQELIERPERIPAACEELLRRFSLVADGRILTSDYEFHGVQLKKGDQILLPQMLSGLDERENAAPMHVDFSRQKVSHTTFGHGSHLCLGQHLARREIIVTLKEWLTRIPDFSIAPGAQIQHKSGIVSGVQALPLVWDPATTKAV | – | – | 20 | – |
| Y96A: P450cam mutant (with C334A) (protein, UniProt P00183 2-415, looked up, variant Y96A C334A) Camphor 5-monooxygenase: TTETIQSNANLAPLPPHVPEHLVFDFDMYNPSNLSAGVQEAWAVLQESNVPDLVWTRCNGGHWIATRGQLIREAYEDYRHFSSECPFIPREAGEAADFIPTSMDPPEQRQFRALANQVVGMPVVDKLENRIQELACSLIESLRPQGQCNFTEDYAEPFPIRIFMLLAGLPEEDIPHLKYLTDQMTRPDGSMTFAEAKEALYDYLIPIIEQRRQKPGTDAISIVANGQVNGRPITSDEAKRMCGLLLVGGLDTVVNFLSFSMEFLAKSPEHRQELIERPERIPAACEELLRRFSLVADGRILTSDYEFHGVQLKKGDQILLPQMLSGLDERENAAPMHVDFSRQKVSHTTFGHGSHLCLGQHLARREIIVTLKEWLTRIPDFSIAPGAQIQHKSGIVSGVQALPLVWDPATTKAV | – | 33 | 19 | Coupling Efficiency (%) [1]: 14%; 2,3,6-Trichlorophenol (relative amount of product formed) [1]: 77; 3,4,6-Trichlorophenol (relative amount of product formed) [1]: 23; Coupling Efficiency (%) [2]: 6%; 2,3-Dichlorophenol (relative amount of product formed) [2]: 94; 3,4-Dichlorophenol (relative amount of product formed) [2]: 6 |
| Y96H: P450cam mutant (with C334A) (protein, UniProt P00183 2-415, looked up, variant Y96H C334A) Camphor 5-monooxygenase: TTETIQSNANLAPLPPHVPEHLVFDFDMYNPSNLSAGVQEAWAVLQESNVPDLVWTRCNGGHWIATRGQLIREAYEDYRHFSSECPFIPREAGEAHDFIPTSMDPPEQRQFRALANQVVGMPVVDKLENRIQELACSLIESLRPQGQCNFTEDYAEPFPIRIFMLLAGLPEEDIPHLKYLTDQMTRPDGSMTFAEAKEALYDYLIPIIEQRRQKPGTDAISIVANGQVNGRPITSDEAKRMCGLLLVGGLDTVVNFLSFSMEFLAKSPEHRQELIERPERIPAACEELLRRFSLVADGRILTSDYEFHGVQLKKGDQILLPQMLSGLDERENAAPMHVDFSRQKVSHTTFGHGSHLCLGQHLARREIIVTLKEWLTRIPDFSIAPGAQIQHKSGIVSGVQALPLVWDPATTKAV | – | 1 | – | Coupling Efficiency (%) [1]: 3%; 2,3,6-Trichlorophenol (relative amount of product formed) [1]: 54; 3,4,6-Trichlorophenol (relative amount of product formed) [1]: 46 |
| Y96F: P450cam mutant (with C334A) (protein, UniProt P00183 2-415, looked up, variant Y96F C334A) Camphor 5-monooxygenase: TTETIQSNANLAPLPPHVPEHLVFDFDMYNPSNLSAGVQEAWAVLQESNVPDLVWTRCNGGHWIATRGQLIREAYEDYRHFSSECPFIPREAGEAFDFIPTSMDPPEQRQFRALANQVVGMPVVDKLENRIQELACSLIESLRPQGQCNFTEDYAEPFPIRIFMLLAGLPEEDIPHLKYLTDQMTRPDGSMTFAEAKEALYDYLIPIIEQRRQKPGTDAISIVANGQVNGRPITSDEAKRMCGLLLVGGLDTVVNFLSFSMEFLAKSPEHRQELIERPERIPAACEELLRRFSLVADGRILTSDYEFHGVQLKKGDQILLPQMLSGLDERENAAPMHVDFSRQKVSHTTFGHGSHLCLGQHLARREIIVTLKEWLTRIPDFSIAPGAQIQHKSGIVSGVQALPLVWDPATTKAV | – | 22 | 8 | – |
| F87A-Y96F-V247A: P450cam mutant (with C334A) (protein, UniProt P00183 2-415, looked up, variant F87A Y96F V247A C334A) Camphor 5-monooxygenase: TTETIQSNANLAPLPPHVPEHLVFDFDMYNPSNLSAGVQEAWAVLQESNVPDLVWTRCNGGHWIATRGQLIREAYEDYRHFSSECPAIPREAGEAFDFIPTSMDPPEQRQFRALANQVVGMPVVDKLENRIQELACSLIESLRPQGQCNFTEDYAEPFPIRIFMLLAGLPEEDIPHLKYLTDQMTRPDGSMTFAEAKEALYDYLIPIIEQRRQKPGTDAISIVANGQVNGRPITSDEAKRMCGLLLAGGLDTVVNFLSFSMEFLAKSPEHRQELIERPERIPAACEELLRRFSLVADGRILTSDYEFHGVQLKKGDQILLPQMLSGLDERENAAPMHVDFSRQKVSHTTFGHGSHLCLGQHLARREIIVTLKEWLTRIPDFSIAPGAQIQHKSGIVSGVQALPLVWDPATTKAV | – | 7 | – | – |
| Y96L-V247A: P450cam mutant (with C334A) (protein, UniProt P00183 2-415, looked up, variant Y96L V247A C334A) Camphor 5-monooxygenase: TTETIQSNANLAPLPPHVPEHLVFDFDMYNPSNLSAGVQEAWAVLQESNVPDLVWTRCNGGHWIATRGQLIREAYEDYRHFSSECPFIPREAGEALDFIPTSMDPPEQRQFRALANQVVGMPVVDKLENRIQELACSLIESLRPQGQCNFTEDYAEPFPIRIFMLLAGLPEEDIPHLKYLTDQMTRPDGSMTFAEAKEALYDYLIPIIEQRRQKPGTDAISIVANGQVNGRPITSDEAKRMCGLLLAGGLDTVVNFLSFSMEFLAKSPEHRQELIERPERIPAACEELLRRFSLVADGRILTSDYEFHGVQLKKGDQILLPQMLSGLDERENAAPMHVDFSRQKVSHTTFGHGSHLCLGQHLARREIIVTLKEWLTRIPDFSIAPGAQIQHKSGIVSGVQALPLVWDPATTKAV | – | – | 0.7 | Coupling Efficiency (%) [2]: 2%; 2,3-Dichlorophenol (relative amount of product formed) [2]: 90; 3,4-Dichlorophenol (relative amount of product formed) [2]: 10 |
| F87L-Y96F: P450cam mutant (with C334A) (protein, UniProt P00183 2-415, looked up, variant F87L Y96F C334A) Camphor 5-monooxygenase: TTETIQSNANLAPLPPHVPEHLVFDFDMYNPSNLSAGVQEAWAVLQESNVPDLVWTRCNGGHWIATRGQLIREAYEDYRHFSSECPLIPREAGEAFDFIPTSMDPPEQRQFRALANQVVGMPVVDKLENRIQELACSLIESLRPQGQCNFTEDYAEPFPIRIFMLLAGLPEEDIPHLKYLTDQMTRPDGSMTFAEAKEALYDYLIPIIEQRRQKPGTDAISIVANGQVNGRPITSDEAKRMCGLLLVGGLDTVVNFLSFSMEFLAKSPEHRQELIERPERIPAACEELLRRFSLVADGRILTSDYEFHGVQLKKGDQILLPQMLSGLDERENAAPMHVDFSRQKVSHTTFGHGSHLCLGQHLARREIIVTLKEWLTRIPDFSIAPGAQIQHKSGIVSGVQALPLVWDPATTKAV | – | 8 | 5 | – |
| C334A: P450cam with only the base mutation C334A (protein, UniProt P00183 2-415, looked up, variant C334A) Camphor 5-monooxygenase: TTETIQSNANLAPLPPHVPEHLVFDFDMYNPSNLSAGVQEAWAVLQESNVPDLVWTRCNGGHWIATRGQLIREAYEDYRHFSSECPFIPREAGEAYDFIPTSMDPPEQRQFRALANQVVGMPVVDKLENRIQELACSLIESLRPQGQCNFTEDYAEPFPIRIFMLLAGLPEEDIPHLKYLTDQMTRPDGSMTFAEAKEALYDYLIPIIEQRRQKPGTDAISIVANGQVNGRPITSDEAKRMCGLLLVGGLDTVVNFLSFSMEFLAKSPEHRQELIERPERIPAACEELLRRFSLVADGRILTSDYEFHGVQLKKGDQILLPQMLSGLDERENAAPMHVDFSRQKVSHTTFGHGSHLCLGQHLARREIIVTLKEWLTRIPDFSIAPGAQIQHKSGIVSGVQALPLVWDPATTKAV | – | – | 0.5 | Coupling Efficiency (%) [2]: 2%; 2,3-Dichlorophenol (relative amount of product formed) [2]: 95; 3,4-Dichlorophenol (relative amount of product formed) [2]: 5 |
